From patent US8101373B2, “β-galactosidase donor fragments” (Discoverx Corporation, priority 2007, dated 2012)

Experiments:
Type in all cases: cell-based
[1] = biological target: T1, SSTR4 (Homo sapiens, UniProt P31391); experiment: PathHunter β-arrestin2-EA / GPCR-ED enzyme fragment complementation, SSTR4-ED fusion; settings: saturating ligand
T1 construct: The entire GPCR coding regions were cloned downstream of the CMV promoter and upstream of the ED; expressed in transfected cells; host or cells: HEK293 or CHOK1 cells, retroviral infection (pLNCX2)
T1 sequence (P31391 whole entry, species assumed, the tested form may be a part): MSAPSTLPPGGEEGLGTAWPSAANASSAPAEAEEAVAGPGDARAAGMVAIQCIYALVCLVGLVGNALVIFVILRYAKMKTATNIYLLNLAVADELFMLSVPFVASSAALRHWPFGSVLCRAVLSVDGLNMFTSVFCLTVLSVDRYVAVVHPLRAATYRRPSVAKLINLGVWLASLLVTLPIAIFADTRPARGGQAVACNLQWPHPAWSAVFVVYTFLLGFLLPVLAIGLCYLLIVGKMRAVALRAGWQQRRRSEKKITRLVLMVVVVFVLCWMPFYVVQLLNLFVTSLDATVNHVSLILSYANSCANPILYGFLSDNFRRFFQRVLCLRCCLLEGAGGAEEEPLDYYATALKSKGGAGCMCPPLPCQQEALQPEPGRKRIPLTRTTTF
T1 sequence (P32121 whole entry partner, species assumed, the tested form may be a part): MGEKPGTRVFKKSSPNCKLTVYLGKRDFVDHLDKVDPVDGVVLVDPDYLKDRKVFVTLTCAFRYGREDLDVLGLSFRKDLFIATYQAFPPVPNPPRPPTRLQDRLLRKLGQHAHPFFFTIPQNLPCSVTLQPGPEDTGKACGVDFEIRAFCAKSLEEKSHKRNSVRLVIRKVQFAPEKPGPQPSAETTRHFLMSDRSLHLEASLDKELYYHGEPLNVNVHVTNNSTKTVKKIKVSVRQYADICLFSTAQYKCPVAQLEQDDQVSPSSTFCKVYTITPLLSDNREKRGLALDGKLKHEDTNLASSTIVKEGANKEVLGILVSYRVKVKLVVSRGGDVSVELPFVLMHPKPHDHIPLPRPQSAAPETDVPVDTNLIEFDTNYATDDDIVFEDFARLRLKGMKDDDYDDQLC
From the text: The cells used were HEK293 and CHOK1 cells. […] The viral plasmid was the PLNCX2 vector from Clontech. The plasmid includes sufficient retroviral sequences to enable viral production in the appropriate packaging cell lines. The plasmid also includes the neomycin antibiotic resistance gene and a CMV promoter that is used to drive expression of the target ED fusion. […] The ED is fused at the intracellular terminus, i.e., C-terminus of the proteins.
Preparation of Detection Reagents—The detection reagents must be prepared as a working solution prior to use, and once prepared are stable for at least 24 hours at room temperature with no impact on assay performance. The detection reagents consist of the substrate and co-factors for chemiluminescence signal detection, as well as the reagents necessary for selective cell permeabilization. Working solution is prepared by combining PathHunter™ Cell Assay Buffer (DiscoveRx, Inc., Fremont, Calif.), Galacton Star® and Emerald II® reagent to 25 μl of cells+compound. reagents (ABI, Bedford, Mass.) at a ratio of 19:1:5.
The fourth column indicates the fold induction for each of the constructs, where saturating conditions of the ligand were employed.

[2] = biological target: T2, CHRM2 (Homo sapiens, UniProt P08172); experiment: PathHunter β-arrestin2-EA / GPCR-ED enzyme fragment complementation, CHRM2-ED fusion; settings: saturating ligand
T2 construct: The entire GPCR coding regions were cloned downstream of the CMV promoter and upstream of the ED; expressed in transfected cells; host or cells: HEK293 or CHOK1 cells, retroviral infection (pLNCX2)
T2 sequence (P08172 whole entry, species assumed, the tested form may be a part): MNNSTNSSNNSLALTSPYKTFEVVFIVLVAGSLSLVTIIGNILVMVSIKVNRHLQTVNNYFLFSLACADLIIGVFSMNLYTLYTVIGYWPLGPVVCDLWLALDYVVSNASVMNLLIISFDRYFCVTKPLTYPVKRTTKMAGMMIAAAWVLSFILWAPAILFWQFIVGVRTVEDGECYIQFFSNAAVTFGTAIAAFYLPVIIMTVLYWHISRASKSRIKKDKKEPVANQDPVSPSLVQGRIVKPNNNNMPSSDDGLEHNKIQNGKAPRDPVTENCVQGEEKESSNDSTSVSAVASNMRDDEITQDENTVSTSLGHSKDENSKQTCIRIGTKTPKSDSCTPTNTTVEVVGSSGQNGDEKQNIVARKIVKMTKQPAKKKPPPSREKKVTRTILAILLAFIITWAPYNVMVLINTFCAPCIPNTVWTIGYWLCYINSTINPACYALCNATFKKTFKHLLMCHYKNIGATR
T2 sequence (P32121 whole entry partner, species assumed, the tested form may be a part): as the sequence (P32121 whole entry partner, species assumed, the tested form may be a part) above
From the text: (§1) The following are the directions for performing the determinations of the response to inducing agents and comparing the prior art ED (pK1) to an ED of the subject invention (pK2):
(§2) The cells used were HEK293 and CHOK1 cells. Following substantially the procedures described in U.S. patent application Ser. No. 10/229,247, filed Aug. 27, 2002, and U.S. patent application Ser. No. 11/132,764 (Publication no. 2005/0287522), filed May 18, 2005, whose disclosures are specifically incorporated by reference, each of the cell lines was infected with retroviral constructs. The viral plasmid was the PLNCX2 vector from Clontech. The plasmid includes sufficient retroviral sequences to enable viral production in the appropriate packaging cell lines. The plasmid also includes the neomycin antibiotic resistance gene and a CMV promoter that is used to drive expression of the target ED fusion. […] The ED is fused at the intracellular terminus, i.e., C-terminus of the proteins.
(§3) Preparation of Detection Reagents—The detection reagents must be prepared as a working solution prior to use, and once prepared are stable for at least 24 hours at room temperature with no impact on assay performance. The detection reagents consist of the substrate and co-factors for chemiluminescence signal detection, as well as the reagents necessary for selective cell permeabilization. […]

[3] = biological target: T3, CRTH2 (Homo sapiens, UniProt Q9Y5Y4); experiment: PathHunter β-arrestin2-EA / GPCR-ED enzyme fragment complementation, CRTH2-ED fusion; settings: saturating ligand
T3 construct: The entire GPCR coding regions were cloned downstream of the CMV promoter and upstream of the ED; expressed in transfected cells; host or cells: HEK293 or CHOK1 cells, retroviral infection (pLNCX2)
T3 sequence (Q9Y5Y4 whole entry, species assumed, the tested form may be a part): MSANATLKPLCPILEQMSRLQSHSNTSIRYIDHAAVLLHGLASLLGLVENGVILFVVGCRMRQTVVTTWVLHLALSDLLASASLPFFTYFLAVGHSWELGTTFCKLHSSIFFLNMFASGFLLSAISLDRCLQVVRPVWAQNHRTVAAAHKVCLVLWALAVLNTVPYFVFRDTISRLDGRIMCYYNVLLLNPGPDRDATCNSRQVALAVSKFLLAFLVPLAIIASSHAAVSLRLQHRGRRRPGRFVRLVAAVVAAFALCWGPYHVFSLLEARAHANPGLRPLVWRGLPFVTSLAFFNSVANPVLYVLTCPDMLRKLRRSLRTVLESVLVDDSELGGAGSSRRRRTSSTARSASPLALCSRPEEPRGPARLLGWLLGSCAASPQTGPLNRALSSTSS
T3 sequence (P32121 whole entry partner, species assumed, the tested form may be a part): as the sequence (P32121 whole entry partner, species assumed, the tested form may be a part) above
From the text: as §1, §2, §3

[4] = biological target: T4, P2RY6 (Homo sapiens, UniProt Q15077); experiment: PathHunter β-arrestin2-EA / GPCR-ED enzyme fragment complementation, P2RY6-ED fusion; settings: saturating ligand
T4 construct: The entire GPCR coding regions were cloned downstream of the CMV promoter and upstream of the ED; expressed in transfected cells; host or cells: HEK293 or CHOK1 cells, retroviral infection (pLNCX2)
T4 sequence (Q15077 whole entry, species assumed, the tested form may be a part): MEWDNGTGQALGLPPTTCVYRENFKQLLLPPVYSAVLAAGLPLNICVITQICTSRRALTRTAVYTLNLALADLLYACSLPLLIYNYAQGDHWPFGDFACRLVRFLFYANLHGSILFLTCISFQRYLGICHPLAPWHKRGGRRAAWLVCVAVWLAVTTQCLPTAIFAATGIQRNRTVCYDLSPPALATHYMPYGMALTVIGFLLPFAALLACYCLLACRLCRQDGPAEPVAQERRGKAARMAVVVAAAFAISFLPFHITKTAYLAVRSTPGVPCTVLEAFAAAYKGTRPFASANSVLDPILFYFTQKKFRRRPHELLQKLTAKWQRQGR
T4 sequence (P32121 whole entry partner, species assumed, the tested form may be a part): as the sequence (P32121 whole entry partner, species assumed, the tested form may be a part) above
From the text: as §1, §2, §3

[5] = biological target: T5, CCR6 (Homo sapiens, UniProt P51684); experiment: PathHunter β-arrestin2-EA / GPCR-ED enzyme fragment complementation, CCR6-ED fusion; settings: saturating ligand
T5 construct: The entire GPCR coding regions were cloned downstream of the CMV promoter and upstream of the ED; expressed in transfected cells; host or cells: HEK293 or CHOK1 cells, retroviral infection (pLNCX2)
T5 sequence (P51684 whole entry, the tested form may be a part): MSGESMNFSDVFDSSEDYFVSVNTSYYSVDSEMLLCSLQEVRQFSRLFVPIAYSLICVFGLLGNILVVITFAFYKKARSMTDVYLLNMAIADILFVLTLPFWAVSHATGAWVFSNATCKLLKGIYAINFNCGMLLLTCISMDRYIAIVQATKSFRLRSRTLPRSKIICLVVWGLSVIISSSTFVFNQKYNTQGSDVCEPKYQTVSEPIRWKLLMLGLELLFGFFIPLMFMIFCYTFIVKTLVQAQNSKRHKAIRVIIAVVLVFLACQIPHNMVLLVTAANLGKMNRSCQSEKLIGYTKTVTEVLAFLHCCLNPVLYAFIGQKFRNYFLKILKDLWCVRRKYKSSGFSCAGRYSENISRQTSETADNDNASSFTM
T5 sequence (P32121 whole entry partner, the tested form may be a part): as the sequence (P32121 whole entry partner, species assumed, the tested form may be a part) above
From the text: as §1, §2, §3

[6] = biological target: T6, PTHR2 (Homo sapiens, UniProt P49190); experiment: PathHunter β-arrestin2-EA / GPCR-ED enzyme fragment complementation, PTHR2-ED fusion; settings: PTHR2 fused to PK2 ED; saturating ligand
T6 construct: The entire GPCR coding regions were cloned downstream of the CMV promoter and upstream of the ED; expressed in transfected cells; host or cells: HEK293 or CHOK1 cells, retroviral infection (pLNCX2)
T6 sequence (P49190 25-550, species assumed): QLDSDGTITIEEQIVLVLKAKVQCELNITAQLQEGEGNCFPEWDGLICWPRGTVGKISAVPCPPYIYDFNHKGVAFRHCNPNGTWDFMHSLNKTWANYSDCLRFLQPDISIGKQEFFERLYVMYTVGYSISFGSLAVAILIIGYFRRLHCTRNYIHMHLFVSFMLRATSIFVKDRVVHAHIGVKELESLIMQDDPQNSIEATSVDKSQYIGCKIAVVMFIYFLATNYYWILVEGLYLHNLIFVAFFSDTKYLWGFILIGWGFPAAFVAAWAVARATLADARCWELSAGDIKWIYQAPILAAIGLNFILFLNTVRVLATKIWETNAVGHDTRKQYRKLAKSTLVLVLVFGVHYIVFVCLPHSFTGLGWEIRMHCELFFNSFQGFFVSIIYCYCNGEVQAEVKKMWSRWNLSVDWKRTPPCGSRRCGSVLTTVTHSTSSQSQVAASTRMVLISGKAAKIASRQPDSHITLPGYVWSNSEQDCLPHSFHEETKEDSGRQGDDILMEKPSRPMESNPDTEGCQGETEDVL
T6 sequence (P32121 whole entry partner, species assumed, the tested form may be a part): as the sequence (P32121 whole entry partner, species assumed, the tested form may be a part) above
From the text: as §1, §2
Preparation of Detection Reagents—The detection reagents must be prepared as a working solution prior to use, and once prepared are stable for at least 24 hours at room temperature with no impact on assay performance. The detection reagents consist of the substrate and co-factors for chemiluminescence signal detection, as well as the reagents necessary for selective cell permeabilization. Working solution is prepared by combining PathHunter™ Cell Assay Buffer (DiscoveRx, Inc., Fremont, Calif.), Galacton Star® and Emerald II® reagent […]. reagents (ABI, Bedford, Mass.) at a ratio of 19:1:5. Sufficient reagent is provided in each kit to perform the indicated number of assays in a 384-well, full-volume microplate assuming an addition of 12 μl of detection reagent per well or in a 96-well, full-volume microplate assuming an addition of 50 μl of detection reagent per well. […]

[7] = biological target: T7, SALPR (Homo sapiens, UniProt Q9NSD7); experiment: PathHunter β-arrestin2-EA / GPCR-ED enzyme fragment complementation, SALPR-ED fusion; settings: saturating ligand
T7 construct: The entire GPCR coding regions were cloned downstream of the CMV promoter and upstream of the ED; expressed in transfected cells; host or cells: HEK293 or CHOK1 cells, retroviral infection (pLNCX2)
T7 sequence (Q9NSD7 whole entry, species assumed, the tested form may be a part): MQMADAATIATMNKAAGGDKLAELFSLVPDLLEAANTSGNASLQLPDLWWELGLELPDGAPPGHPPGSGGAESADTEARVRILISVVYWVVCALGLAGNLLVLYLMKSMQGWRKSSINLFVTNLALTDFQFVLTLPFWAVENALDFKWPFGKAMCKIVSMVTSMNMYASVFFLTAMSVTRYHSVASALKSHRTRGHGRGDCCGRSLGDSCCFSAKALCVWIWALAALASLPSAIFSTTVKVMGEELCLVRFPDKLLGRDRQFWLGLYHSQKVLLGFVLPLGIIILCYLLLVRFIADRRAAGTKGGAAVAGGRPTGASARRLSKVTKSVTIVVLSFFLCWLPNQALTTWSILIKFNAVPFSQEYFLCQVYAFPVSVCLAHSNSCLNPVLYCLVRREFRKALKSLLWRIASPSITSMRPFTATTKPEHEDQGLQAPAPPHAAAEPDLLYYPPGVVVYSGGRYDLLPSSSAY
T7 sequence (P32121 whole entry partner, species assumed, the tested form may be a part): as the sequence (P32121 whole entry partner, species assumed, the tested form may be a part) above
From the text: as §1, §2, §3

[8] = biological target: T8, CCR4 (Homo sapiens, UniProt P51679); experiment: PathHunter β-arrestin2-EA / GPCR-ED enzyme fragment complementation, CCR4-ED fusion; settings: saturating ligand
T8 construct: The entire GPCR coding regions were cloned downstream of the CMV promoter and upstream of the ED; expressed in transfected cells; host or cells: HEK293 or CHOK1 cells, retroviral infection (pLNCX2)
T8 sequence (P51679 whole entry, the tested form may be a part): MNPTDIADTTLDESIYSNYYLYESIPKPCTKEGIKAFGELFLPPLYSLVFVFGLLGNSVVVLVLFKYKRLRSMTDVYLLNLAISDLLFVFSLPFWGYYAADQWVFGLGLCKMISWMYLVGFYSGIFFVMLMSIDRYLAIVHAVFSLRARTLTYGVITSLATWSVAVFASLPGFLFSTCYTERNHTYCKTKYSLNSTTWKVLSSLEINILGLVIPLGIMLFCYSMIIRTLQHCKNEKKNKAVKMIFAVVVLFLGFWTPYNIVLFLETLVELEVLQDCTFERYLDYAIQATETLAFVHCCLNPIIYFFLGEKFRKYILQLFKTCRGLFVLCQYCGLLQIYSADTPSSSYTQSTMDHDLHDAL
T8 sequence (P32121 whole entry partner, the tested form may be a part): as the sequence (P32121 whole entry partner, species assumed, the tested form may be a part) above
From the text: as §1, §2, §3

## COC(=O)[C@H](CCCN=C(N)N)NC(=O)CCCc1c(-c2ccccc2)[nH]c2c(F)cc(F)cc12 [L803,087]
[1]; SSTR4 fused to PK1 ED
  Fold induct.: 1.8 fold
[1]; SSTR4 fused to PK2 ED
  Fold induct.: 2.1 fold

## C[N+](C)(C)CC#CCN1CCCC1=O [Oxotremorine M]
[2]; CHRM2 fused to PK2 ED
  Fold induct.: 6.1 fold

## O=C1CCCN1CC#CCN1CCCC1 [Oxotremorine]
[2]; CHRM2 fused to PK1 ED
  Fold induct.: 1.6 fold

## CCCCC[C@H](O)/C=C/[C@H]1C(=O)C[C@H](O)[C@@H]1C/C=C\CCCC(=O)O [Prostaglandin D2]
[3]; CRTH2 fused to PK1 ED
  Fold induct.: none
[3]; CRTH2 fused to PK2 ED
  Fold induct.: 2.6 fold

## O=c1ccn([C@@H]2O[C@H](COP(=O)(O)OP(=O)(O)O)[C@@H](O)[C@H]2O)c(=O)[nH]1 [UDP]
[4]; P2RY6 fused to PK1 ED
  Fold induct.: 1.3 fold
[4]; P2RY6 fused to PK2 ED
  Fold induct.: 1.9 fold

## CCL20
[5]; CCR6 fused to PK1 ED
  Fold induct.: 1.4 fold
[5]; CCR6 fused to PK2 ED
  Fold induct.: 6.5 fold

## PTH (1-34)
[6]
  Fold induct.: 72.9 fold

## PTHRP
[6]
  Fold induct.: none

## TIP39
[6]
  Fold induct.: 2.8 fold

B1: Relaxin-3 (protein)
chain: RAAPYGVRLCGREFIRAVIFTCGGSRWRRSDILAHEAMGDTFPDADADEDSLAGELDEAMGSSEWLALTKSPQAFYRGRPSWQGTPGVLRGSRDVLAGLSSSCCKWGCSKSEISSLC
notes: ligand employed for SALPR
[7]; SALPR fused to PK1 ED
  Fold induct.: none
[7]; SALPR fused to PK2 ED
  Fold induct.: 1.8 fold

B2: CCL22 (protein)
chain: GPYGANMEDSVCCRDYVRYRLPLRVVKHFYWTSDSCPRPGVVLLTFRDKEICADPRVPWVKMILNKLSQ
notes: ligand employed for CCR4
[8]; CCR4 fused to PK1 ED
  Fold induct.: 18.9 fold
[8]; CCR4 fused to PK2 ED
  Fold induct.: 3 fold
